# Test results taken from patent publication US20140343256A1 (TECHNISCHE UNIVERSITAT MUNCHEN, published 2014).
# Ends that are not written are not given here. * marks the point of attachment. Palmitoyl = CCCCCCCCCCCCCCCC(=O)*
# B1: murine monoclonal antibody T2.5 (antibody, V domains shown)
# VH: QVQLQQSGPELVNPGASVKLSCKASGFTFTTYGINWVKQGPGQGLEWIGWIYPRDGSTNFNENFKDKAALTVDTSSSTAYMELHSLTSEDSAVYFCARLTGGTFLDYWGQGTTLTVSS
# VL: DIVLTQSPASLAVSLGQRATISCRASESVEYYGTSLMQWYQQKPGQPPKLLIFGASNVESGVPVRFSGSGSGTDFSLNIHPVEEDDIVMYFCQQSRKLPWTFGGGTKLEIKR
# notes: also called mAb T2.5; native T2.5
# What was measured:
# [1] = molecular target: T1, N-palmitoyl-S-(2,3-bis(palmitoyloxy)-(2R,S)-propyl)-(R)-cysteinyl-seryl-(lysyl)-3-lysine; assay: SPR, antibody alone over immobilised P3CSK4
# T1 construct: Synthetic bacterial lipopeptide analogue and TLR2 agonist, immobilised on the SPR chip; also called P3CSK4; tripalmitoyl-cysteinyl-seryl-(lysyl)3-lysine
# T1 peptide: Palmitoyl-C(2,3‑bis(palmitoyloxy)‑(2R,S)‑propyl)SKKKK
# [2] = molecular target: recombinant TLR2ECD-Fc fusion protein (human IgGFc fused mouse TLR2ECD protein) (murine; human) (UniProt Q9QUN7); assay: SPR competition: T2EC pre-incubated with T2.5, binding to immobilised P3CSK4
# Sequence of recombinant TLR2ECD-Fc fusion protein (human IgGFc fused mouse TLR2ECD protein) (murine; human) (Q9QUN7 25-587 limits assumed, form in doubt): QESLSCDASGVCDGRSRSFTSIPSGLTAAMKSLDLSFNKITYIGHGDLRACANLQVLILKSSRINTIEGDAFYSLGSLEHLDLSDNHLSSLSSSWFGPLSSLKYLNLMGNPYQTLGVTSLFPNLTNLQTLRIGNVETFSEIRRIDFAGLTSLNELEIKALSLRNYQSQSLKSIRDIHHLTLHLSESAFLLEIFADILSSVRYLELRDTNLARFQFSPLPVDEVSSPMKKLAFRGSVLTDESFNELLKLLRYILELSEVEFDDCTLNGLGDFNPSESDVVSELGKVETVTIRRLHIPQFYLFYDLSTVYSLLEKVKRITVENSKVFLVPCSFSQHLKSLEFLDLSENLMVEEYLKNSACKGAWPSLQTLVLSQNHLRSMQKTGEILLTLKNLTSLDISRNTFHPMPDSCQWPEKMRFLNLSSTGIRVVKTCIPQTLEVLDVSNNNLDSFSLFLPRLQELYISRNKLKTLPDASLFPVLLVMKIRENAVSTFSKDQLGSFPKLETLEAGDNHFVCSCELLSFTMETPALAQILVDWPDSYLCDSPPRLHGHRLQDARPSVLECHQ
binder,measurement,setting,value
B1,binding result,[1],no binding
same,molar excess of T2.5 over T2EC that abrogated the T2EC-P3CSK4 interaction (fold molar excess),[2],10
same,molar ratio (T2.5:T2ECD) required to reduce binding to 50% (molar ratio (T2.5:T2ECD)),[2],3.3
